{
  "source": "the RNAGym collection of RNA variant scans (doi:10.1093/molbev/msab373)",
  "parents": {"B1": {"name": "Azoarcus group I ribozyme (parent)", "chain": "GUGCCUUGCGCCGGGAAACCACGCAAGGGAUGGUGUCAAAUUCGGCGAAACCUAAGCGCCCGCCCGGGCGUAUGGCAACGCCGAGCCAAGCUUCGGCGCCUGCGCCGAUGAAGGUGUAGAGACUAGACGGCACCCACCUAAGGCAAACGCUAUGGUGAAGGCAUAGUCCAGGGAGUGGCGAAAGUCACACAAACCGG"}},
  "data": [
    {"variants_of": "B1", "experiment": "reverse-splicing fitness (ratio to wild type); higher = more active; in vitro selection; Mg2+ level not given", "method_in_brief": "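An in vitro group I ribozyme library with randomized positions was T7-transcribed and gel-purified. In triplicate, 10 pmol RNA in EPPS pH 7.5 was reacted with 50 pmoles of a 30-nt RNA substrate for 1 h at 37 °C across several added MgCl2 levels (1–48 mM), then stopped with EDTA. Products were reverse transcribed from a substrate-complementary primer, PCR-amplified and sequenced (HiSeq 4000). Fitness is a variant's read proportion after selection over that before, normalised to wild type.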", "values": [
      {"variant": "C82G A111C A120C A145C C150A U176G", "reverse-splicing fitness": 0.00623},
      {"variant": "C82G A111C A120C A145C C150A U176C", "reverse-splicing fitness": 0.0115},
      {"variant": "C82G A111C A120C A145C C150A U176A", "reverse-splicing fitness": 0.00989},
      {"variant": "C82A C150U C169A U176C", "reverse-splicing fitness": 0.0144},
      {"variant": "C82A C150U C169A U176A", "reverse-splicing fitness": 0.0169},
      {"variant": "C82A C150U C169A U176G", "reverse-splicing fitness": 0.00593},
      {"variant": "C82A C150U C169G U176A", "reverse-splicing fitness": 0.014},
      {"variant": "C82A C150U C169G U176C", "reverse-splicing fitness": 0.0175},
      {"variant": "C82A C150U C169G U176G", "reverse-splicing fitness": 0.00542},
      {"variant": "C82G A111C A120C A145C C169A U176G", "reverse-splicing fitness": 0.0064},
      {"variant": "C82G A111C A120C A145C C169A U176A", "reverse-splicing fitness": 0.0175},
      {"variant": "C82G A111C A120C A145C C169A U176C", "reverse-splicing fitness": 0.0118},
      {"variant": "C82G A111C A120C A145U C150U C169G U176G", "reverse-splicing fitness": 0.0072},
      {"variant": "C82G A111C A120C A145U C150U C169G U176C", "reverse-splicing fitness": 0.0162},
      {"variant": "C82G A111C A120C A145U C150U C169G U176A", "reverse-splicing fitness": 0.0133},
      {"variant": "C82A C150G C169A", "reverse-splicing fitness": 0.00934},
      {"variant": "C82A C150G C169G", "reverse-splicing fitness": 0.00738},
      {"variant": "C82A C150G C169U", "reverse-splicing fitness": 0.00995},
      {"variant": "C82G A111C A120C C150U C169U U176C", "reverse-splicing fitness": 0.0142},
      {"variant": "C82G A111C A120C C150U C169U U176A", "reverse-splicing fitness": 0.0158},
      {"variant": "C82G A111C A120C C150U C169U U176G", "reverse-splicing fitness": 0.00857},
      {"variant": "C82G A111C A120C A145G C169U U176G", "reverse-splicing fitness": 0.00614},
      {"variant": "C82G A111C A120C A145G C169U U176C", "reverse-splicing fitness": 0.0158},
      {"variant": "C82G A111C A120C A145G C169U U176A", "reverse-splicing fitness": 0.0139},
      {"variant": "C82A C150U U176C", "reverse-splicing fitness": 0.253},
      {"variant": "C82A C150U U176G", "reverse-splicing fitness": 0.069},
      {"variant": "C82A C150U U176A", "reverse-splicing fitness": 0.24},
      {"variant": "C82G A111C A120C A145C C150A C169A U176A", "reverse-splicing fitness": 0.0156},
      {"variant": "C82G A111C A120C A145C C150A C169A U176G", "reverse-splicing fitness": 0.00693},
      {"variant": "C82G A111C A120C A145C C150A C169A U176C", "reverse-splicing fitness": 0.00933},
      {"variant": "C82G A111C A120C A145C C169U", "reverse-splicing fitness": 0.0151},
      {"variant": "C82G A111C A120C A145C C169G", "reverse-splicing fitness": 0.00843},
      {"variant": "C82G A111C A120C A145C C169A", "reverse-splicing fitness": 0.00657},
      {"variant": "C82G A111C A120C A145C C150G C169A U176C", "reverse-splicing fitness": 0.00796},
      {"variant": "C82G A111C A120C A145C C150G C169A U176A", "reverse-splicing fitness": 0.00832},
      {"variant": "C82G A111C A120C A145C C150G C169A U176G", "reverse-splicing fitness": 0.00733},
      {"variant": "C82G A111C A120C A145U C169A U176G", "reverse-splicing fitness": 0.0056},
      {"variant": "C82G A111C A120C A145U C169A U176A", "reverse-splicing fitness": 0.0143},
      {"variant": "C82G A111C A120C A145U C169A U176C", "reverse-splicing fitness": 0.0142},
      {"variant": "C82A A145U C169A U176G", "reverse-splicing fitness": 0.00484},
      {"variant": "C82G A111C A120C A145C C150U C169U", "reverse-splicing fitness": 0.011},
      {"variant": "C82G A111C A120C A145C C150U C169A", "reverse-splicing fitness": 0.00728},
      {"variant": "C82G A111C A120C A145C C150U C169G", "reverse-splicing fitness": 0.00697},
      {"variant": "C82G A111C", "reverse-splicing fitness": 0.281},
      {"variant": "C82G A111C A120C C150G C169G U176A", "reverse-splicing fitness": 0.00891},
      {"variant": "C82G A111C A120C C150G C169G U176C", "reverse-splicing fitness": 0.00766},
      {"variant": "C82G A111C A120C C150G C169G U176G", "reverse-splicing fitness": 0.00663},
      {"variant": "C82G A111C A120C A145G U176G", "reverse-splicing fitness": 0.00761},
      {"variant": "C82G A111C A120C A145G U176A", "reverse-splicing fitness": 0.0172},
      {"variant": "C82G A111C A120C A145G U176C", "reverse-splicing fitness": 0.0314},
      {"variant": "C82G A111C A120C A145U C150G C169A U176A", "reverse-splicing fitness": 0.0121},
      {"variant": "C82G A111C A120C A145U C150G C169A U176G", "reverse-splicing fitness": 0.00726},
      {"variant": "C82G A111C A120C A145U C150G C169A U176C", "reverse-splicing fitness": 0.0108},
      {"variant": "C82A C150G C169A U176G", "reverse-splicing fitness": 0.00678},
      {"variant": "C82A C150G C169A U176A", "reverse-splicing fitness": 0.0112},
      {"variant": "C82A C150G C169A U176C", "reverse-splicing fitness": 0.0111},
      {"variant": "C82A C169A U176G", "reverse-splicing fitness": 0.00441},
      {"variant": "C82A C169A U176A", "reverse-splicing fitness": 0.015},
      {"variant": "C82A C169A U176C", "reverse-splicing fitness": 0.0166},
      {"variant": "C82G A111C A120C A145G C150U U176A", "reverse-splicing fitness": 0.0138},
      {"variant": "C82G A111C A120C A145G C150U U176G", "reverse-splicing fitness": 0.00788},
      {"variant": "C82G A111C A120C A145G C150U U176C", "reverse-splicing fitness": 0.0215},
      {"variant": "C82A A145U U176A", "reverse-splicing fitness": 0.386},
      {"variant": "C82A A145U U176C", "reverse-splicing fitness": 0.482},
      {"variant": "C82A A145U U176G", "reverse-splicing fitness": 0.157},
      {"variant": "C82G A111C A120C A145C C150G U176C", "reverse-splicing fitness": 0.00825},
      {"variant": "C82G A111C A120C A145C C150G U176A", "reverse-splicing fitness": 0.00528},
      {"variant": "C82G A111C A120C A145C C150G U176G", "reverse-splicing fitness": 0.00325},
      {"variant": "C82G A111C A120C C150U U176G", "reverse-splicing fitness": 0.00767},
      {"variant": "C82G A111C A120C C150U U176C", "reverse-splicing fitness": 0.0226},
      {"variant": "C82G A111C A120C C150U U176A", "reverse-splicing fitness": 0.0157},
      {"variant": "C82G A111C A120C A145U C150G C169U", "reverse-splicing fitness": 0.00897},
      {"variant": "C82G A111C A120C A145U C150G C169A", "reverse-splicing fitness": 0.00941},
      {"variant": "C82G A111C A120C A145U C150G C169G", "reverse-splicing fitness": 0.00765},
      {"variant": "C82G A111C A120C A145U C150U C169U U176C", "reverse-splicing fitness": 0.0153},
      {"variant": "C82G A111C A120C A145U C150U C169U U176A", "reverse-splicing fitness": 0.015},
      {"variant": "C82G A111C A120C A145U C150U C169U U176G", "reverse-splicing fitness": 0.00674},
      {"variant": "C82G A111C A120C A145U C150A C169G U176G", "reverse-splicing fitness": 0.00775},
      {"variant": "C82G A111C A120C A145U C150A C169G U176A", "reverse-splicing fitness": 0.0143},
      {"variant": "C82G A111C A120C A145U C150A C169G U176C", "reverse-splicing fitness": 0.0169},
      {"variant": "C82G A111C A120C A145U C169U U176G", "reverse-splicing fitness": 0.00641},
      {"variant": "C82G A111C A120C A145U C169U U176A", "reverse-splicing fitness": 0.0126},
      {"variant": "C82G A111C A120C A145U C169U U176C", "reverse-splicing fitness": 0.0123}
    ]}
  ]
}
